Measured values taken from PMC314469, “Protein Interaction Networks by Proteome Peptide Scanning” (PLoS Biology, 2004).

T1: Boi1 SH3 (BOI1_YEAST), P38041
T1 chain: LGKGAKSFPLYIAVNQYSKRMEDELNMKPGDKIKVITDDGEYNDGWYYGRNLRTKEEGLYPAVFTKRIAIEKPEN

T2: Boi2 SH3 (BOI2_YEAST), P39969
T2 chain: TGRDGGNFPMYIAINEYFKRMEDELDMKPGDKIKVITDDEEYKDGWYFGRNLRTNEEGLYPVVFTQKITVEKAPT

T3: Myo5 SH3 (MYO5_YEAST), Q04439
T3 chain: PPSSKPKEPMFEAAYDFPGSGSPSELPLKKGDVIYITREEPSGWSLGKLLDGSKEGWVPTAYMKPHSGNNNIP

T4: Rvs167 SH3 (RV167_YEAST), P39743
T4 chain: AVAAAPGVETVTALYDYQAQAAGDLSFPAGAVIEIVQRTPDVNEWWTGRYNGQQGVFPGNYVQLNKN

T5: Yfr024 SH3 (LSB3_YEAST), P43603
T5 chain: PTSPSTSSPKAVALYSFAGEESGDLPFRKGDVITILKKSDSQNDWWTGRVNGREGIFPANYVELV

T6: Yhr016c SH3 (YSC84_YEAST), P32793
T6 chain: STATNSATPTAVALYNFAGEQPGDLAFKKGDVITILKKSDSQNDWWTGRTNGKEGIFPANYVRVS


Target: T1, Boi1 SH3 (BOI1_YEAST), P38041
Experiment: SPOT array

| Binder | normalised SPOT signal, Boehringer light units (BLU); mean over the file's lines of this peptide |
| --- | --- |
| LSFDRPPPLTPEKN [YER032W 254-267] | 92.6 |
| LSGTRLVPNSPLLW [YBR055C 692-705] | 73.7 |
| LQQRRYYPIFPGSI [YBL035C 565-578] | 6230 |
| LQYHKKNPYSPLFS [YPL020C 12-25] | 451 |
| LRISKPDPESPSKL [YBL101C 847-860] | 242 |
| LSRSKPLPLTPNSK [YCL027W 415-428] | 642 |
| LTSFKGRPKPPKTL [YGR221C 455-468] | 710 |
| LSYLKDLPFVPFLF [YNL143C 64-77] | 62.5 |
| LTLTKWDPSKPISL [YKL027W 383-396] | 190 |
| LSPAKARPSFPHND [YOR178C 9-22] | 807 |
| LTKIRRRPQQPLTD [YER047C 13-26] | 3090 |
| LSKVRGRPMYPRPA [YBR083W 422-435] | 479 |
| LSKLRLSPENPSNT [YKL101W 1214-1227] | 471 |
| LTIFKRPPKQPGHQ [YOL006C 477-490] | 135 |

Target: T2, Boi2 SH3 (BOI2_YEAST), P39969
Experiment: SPOT array

| Binder | normalised SPOT signal, Boehringer light units (BLU); mean over the file's lines of this peptide |
| --- | --- |
| LSFDRPPPLTPEKN [YER032W 254-267] | 0 |
| LSGTRLVPNSPLLW [YBR055C 692-705] | 29.6 |
| LQQRRYYPIFPGSI [YBL035C 565-578] | 472 |
| LQYHKKNPYSPLFS [YPL020C 12-25] | 99.3 |
| LRISKPDPESPSKL [YBL101C 847-860] | 0.6 |
| LSRSKPLPLTPNSK [YCL027W 415-428] | 86.5 |
| LTSFKGRPKPPKTL [YGR221C 455-468] | 12.9 |
| LSYLKDLPFVPFLF [YNL143C 64-77] | 6.6 |
| LTLTKWDPSKPISL [YKL027W 383-396] | 104 |
| LSPAKARPSFPHND [YOR178C 9-22] | 31.9 |
| LTKIRRRPQQPLTD [YER047C 13-26] | 84.8 |
| LSKVRGRPMYPRPA [YBR083W 422-435] | 37 |
| LSKLRLSPENPSNT [YKL101W 1214-1227] | 33.2 |
| LTIFKRPPKQPGHQ [YOL006C 477-490] | 37.3 |

Target: T3, Myo5 SH3 (MYO5_YEAST), Q04439
Experiment: SPOT array

| Binder | normalised SPOT signal, Boehringer light units (BLU); mean over the file's lines of this peptide |
| --- | --- |
| LSFDRPPPLTPEKN [YER032W 254-267] | 174 |
| LSGTRLVPNSPLLW [YBR055C 692-705] | 432 |
| LQQRRYYPIFPGSI [YBL035C 565-578] | 279 |
| LQYHKKNPYSPLFS [YPL020C 12-25] | 318 |
| LRISKPDPESPSKL [YBL101C 847-860] | 246 |
| LSRSKPLPLTPNSK [YCL027W 415-428] | 324 |
| LTSFKGRPKPPKTL [YGR221C 455-468] | 328 |
| LSYLKDLPFVPFLF [YNL143C 64-77] | 213 |
| LTLTKWDPSKPISL [YKL027W 383-396] | 231 |
| LSPAKARPSFPHND [YOR178C 9-22] | 213 |
| LTKIRRRPQQPLTD [YER047C 13-26] | 393 |
| LSKVRGRPMYPRPA [YBR083W 422-435] | 752 |
| LSKLRLSPENPSNT [YKL101W 1214-1227] | 157 |
| LTIFKRPPKQPGHQ [YOL006C 477-490] | 703 |

Target: T4, Rvs167 SH3 (RV167_YEAST), P39743
Experiment: SPOT array

| Binder | normalised SPOT signal, Boehringer light units (BLU); mean over the file's lines of this peptide |
| --- | --- |
| LSFDRPPPLTPEKN [YER032W 254-267] | 91.3 |
| LSGTRLVPNSPLLW [YBR055C 692-705] | 1460 |
| LQQRRYYPIFPGSI [YBL035C 565-578] | 91 |
| LQYHKKNPYSPLFS [YPL020C 12-25] | 208 |
| LRISKPDPESPSKL [YBL101C 847-860] | 109 |
| LSRSKPLPLTPNSK [YCL027W 415-428] | 394 |
| LTSFKGRPKPPKTL [YGR221C 455-468] | 50.5 |
| LSYLKDLPFVPFLF [YNL143C 64-77] | 44.3 |
| LTLTKWDPSKPISL [YKL027W 383-396] | 12.4 |
| LSPAKARPSFPHND [YOR178C 9-22] | 174 |
| LTKIRRRPQQPLTD [YER047C 13-26] | 388 |
| LSKVRGRPMYPRPA [YBR083W 422-435] | 92.6 |
| LSKLRLSPENPSNT [YKL101W 1214-1227] | 37.4 |
| LTIFKRPPKQPGHQ [YOL006C 477-490] | 160 |

Target: Sho1 SH3 (SHO1_YEAST), P40073
Sequence (P40073 295-366): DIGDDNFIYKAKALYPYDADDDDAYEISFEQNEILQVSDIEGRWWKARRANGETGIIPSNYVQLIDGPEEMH
Experiment: SPOT array

| Binder | normalised SPOT signal, Boehringer light units (BLU); mean over the file's lines of this peptide |
| --- | --- |
| LSFDRPPPLTPEKN [YER032W 254-267] | 48.1 |
| LSGTRLVPNSPLLW [YBR055C 692-705] | 94 |
| LQQRRYYPIFPGSI [YBL035C 565-578] | 38.8 |
| LQYHKKNPYSPLFS [YPL020C 12-25] | 63.3 |
| LRISKPDPESPSKL [YBL101C 847-860] | 22.3 |
| LSRSKPLPLTPNSK [YCL027W 415-428] | 55900 |
| LTSFKGRPKPPKTL [YGR221C 455-468] | 189 |
| LSYLKDLPFVPFLF [YNL143C 64-77] | 22900 |
| LTLTKWDPSKPISL [YKL027W 383-396] | 27 |
| LSPAKARPSFPHND [YOR178C 9-22] | 53.3 |
| LTKIRRRPQQPLTD [YER047C 13-26] | 117 |
| LSKVRGRPMYPRPA [YBR083W 422-435] | 82.7 |
| LSKLRLSPENPSNT [YKL101W 1214-1227] | 54.8 |
| LTIFKRPPKQPGHQ [YOL006C 477-490] | 93.6 |

Target: T5, Yfr024 SH3 (LSB3_YEAST), P43603
Experiment: SPOT array

| Binder | normalised SPOT signal, Boehringer light units (BLU); mean over the file's lines of this peptide |
| --- | --- |
| LSFDRPPPLTPEKN [YER032W 254-267] | 124 |
| LSGTRLVPNSPLLW [YBR055C 692-705] | 1410 |
| LQQRRYYPIFPGSI [YBL035C 565-578] | 474 |
| LQYHKKNPYSPLFS [YPL020C 12-25] | 73.4 |
| LRISKPDPESPSKL [YBL101C 847-860] | 205 |
| LSRSKPLPLTPNSK [YCL027W 415-428] | 837 |
| LTSFKGRPKPPKTL [YGR221C 455-468] | 216 |
| LSYLKDLPFVPFLF [YNL143C 64-77] | 125 |
| LTLTKWDPSKPISL [YKL027W 383-396] | 65.5 |
| LSPAKARPSFPHND [YOR178C 9-22] | 2350 |
| LTKIRRRPQQPLTD [YER047C 13-26] | 937 |
| LSKVRGRPMYPRPA [YBR083W 422-435] | 342 |
| LSKLRLSPENPSNT [YKL101W 1214-1227] | 27.1 |
| LTIFKRPPKQPGHQ [YOL006C 477-490] | 1030 |

Target: T6, Yhr016c SH3 (YSC84_YEAST), P32793
Experiment: SPOT array

| Binder | normalised SPOT signal, Boehringer light units (BLU); mean over the file's lines of this peptide |
| --- | --- |
| LSFDRPPPLTPEKN [YER032W 254-267] | 7.4 |
| LSGTRLVPNSPLLW [YBR055C 692-705] | 80.1 |
| LQQRRYYPIFPGSI [YBL035C 565-578] | 44.5 |
| LQYHKKNPYSPLFS [YPL020C 12-25] | 80.3 |
| LRISKPDPESPSKL [YBL101C 847-860] | 74.5 |
| LSRSKPLPLTPNSK [YCL027W 415-428] | 105 |
| LTSFKGRPKPPKTL [YGR221C 455-468] | 23.2 |
| LSYLKDLPFVPFLF [YNL143C 64-77] | 18.8 |
| LTLTKWDPSKPISL [YKL027W 383-396] | 21.1 |
| LSPAKARPSFPHND [YOR178C 9-22] | 47.2 |
| LTKIRRRPQQPLTD [YER047C 13-26] | 71.9 |
| LSKVRGRPMYPRPA [YBR083W 422-435] | 51.9 |
| LSKLRLSPENPSNT [YKL101W 1214-1227] | 7.9 |
| LTIFKRPPKQPGHQ [YOL006C 477-490] | 730 |
